Data on 125 sequences can be found in the supplement of paper PMC9112550, “Optimization of the antimicrobial peptide Bac7 by deep mutational scanning” (BMC Biology, 2022).

In the series the test system is Escherichia coli TOP10. In words: shrunken log2 fold change of peptide-encoding DNA abundance (4.5 h post-induction vs induction); higher = less antimicrobial activity (less host growth inhibition). The settings on record: time post-induction: 4.5 h; library: site-saturation at positions 5, 18, 19, 20.
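Further: peptides expressed intracellularly from a pBAD plasmid library in pooled LB shake-flask culture, induced with 0.3% L-arabinose, DNA abundance read by NGS, three biological replicates, DESeq2 with apeglm shrinkage.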

For RRIRCRPPRLPRPRPRPEQHPRP, the “shrunken log2 fold change” value is 0.0913.

As to RRIRWRPPRLPRPRPRPHQQPRP, the “shrunken log2 fold change” value was -0.0485.

Take RRIRHRPPRLPRPRPRPAYSPRP: the “shrunken log2 fold change” value was -0.000852.

RRIRFRPPRLPRPRPRPMQNPRP: the “shrunken log2 fold change” value was 0.027.

For the sequence RRIRARPPRLPRPRPRPRLSPRP, the “shrunken log2 fold change” value turned out to be 0.358.

With RRIRSRPPRLPRPRPRPMQFPRP, the “shrunken log2 fold change” value was found to be 0.0683.

For RRIRWRPPRLPRPRPRPSFEPRP, the “shrunken log2 fold change” value is -0.0836.

On to RRIRPRPPRLPRPRPRPMAGPRP, for which the “shrunken log2 fold change” value is -0.13.

With RRIRHRPPRLPRPRPRPQWWPRP, the “shrunken log2 fold change” value is -0.0314.

Consider RRIRKRPPRLPRPRPRPSQTPRP, for which the “shrunken log2 fold change” value was 0.026.

On to RRIRVRPPRLPRPRPRPVEVPRP, for which the “shrunken log2 fold change” value is -0.0382.

For RRIRFRPPRLPRPRPRPVPEPRP, the “shrunken log2 fold change” value is 0.098.

Regarding RRIRMRPPRLPRPRPRPRFIPRP, the “shrunken log2 fold change” value was -0.154.

As for RRIRGRPPRLPRPRPRPPNYPRP, the “shrunken log2 fold change” value came to 0.299.

For the sequence RRIRMRPPRLPRPRPRPTAYPRP, the “shrunken log2 fold change” value was found to be 0.513.

For the sequence RRIRERPPRLPRPRPRPNLFPRP, the “shrunken log2 fold change” value stood at 0.0891.

As to RRIRKRPPRLPRPRPRPFPRPRP, the “shrunken log2 fold change” value was found to be 0.297.

As for RRIRGRPPRLPRPRPRPDHAPRP, the “shrunken log2 fold change” value was 0.217.

As to RRIRQRPPRLPRPRPRPTIWPRP, the “shrunken log2 fold change” value was -0.0969.

Regarding RRIRLRPPRLPRPRPRPDGMPRP, the “shrunken log2 fold change” value is -0.153.

Take RRIRFRPPRLPRPRPRPHPMPRP: the “shrunken log2 fold change” value is -0.367.

Turning to RRIRMRPPRLPRPRPRPGPNPRP, the “shrunken log2 fold change” value is 0.641.

RRIRGRPPRLPRPRPRPSYGPRP: the “shrunken log2 fold change” value was -0.137.

For the sequence RRIRARPPRLPRPRPRPPESPRP, the “shrunken log2 fold change” value amounted to 1.02.

For RRIRSRPPRLPRPRPRPCSHPRP, the “shrunken log2 fold change” value was -0.174.

RRIRNRPPRLPRPRPRPHFVPRP: the “shrunken log2 fold change” value was -0.0954.

RRIRGRPPRLPRPRPRPIPIPRP: the “shrunken log2 fold change” value turned out to be 0.0541.

RRIRSRPPRLPRPRPRPGWEPRP: the “shrunken log2 fold change” value is -0.0365.

Regarding RRIRMRPPRLPRPRPRPHERPRP, the “shrunken log2 fold change” value came out at 1.04.

RRIRGRPPRLPRPRPRPANYPRP: the “shrunken log2 fold change” value was 0.0041.

Take RRIRYRPPRLPRPRPRPICCPRP: the “shrunken log2 fold change” value is -0.137.

Regarding RRIRWRPPRLPRPRPRPAYGPRP, the “shrunken log2 fold change” value was -0.213.

Consider RRIRWRPPRLPRPRPRPDESPRP, for which the “shrunken log2 fold change” value was -0.0029.

With RRIRCRPPRLPRPRPRPYRVPRP, the “shrunken log2 fold change” value was 1.99.

As to RRIRSRPPRLPRPRPRPPHYPRP, the “shrunken log2 fold change” value is 0.132.

Consider RRIRERPPRLPRPRPRPIPLPRP, for which the “shrunken log2 fold change” value is -0.275.

For the sequence RRIRMRPPRLPRPRPRPRMPPRP, the “shrunken log2 fold change” value was 0.771.

RRIRRRPPRLPRPRPRPWLRPRP: the “shrunken log2 fold change” value was -0.103.

RRIRVRPPRLPRPRPRPLRPPRP: the “shrunken log2 fold change” value worked out at 0.97.

Take RRIRQRPPRLPRPRPRPHYWPRP: the “shrunken log2 fold change” value was 0.0403.

Regarding RRIRDRPPRLPRPRPRPMMFPRP, the “shrunken log2 fold change” value was 0.43.

In the case of RRIRKRPPRLPRPRPRPFMCPRP, the “shrunken log2 fold change” value is 0.0653.

As for RRIRLRPPRLPRPRPRPAQSPRP, the “shrunken log2 fold change” value was determined as 0.485.

As for RRIRKRPPRLPRPRPRPAYPPRP, the “shrunken log2 fold change” value is -0.0401.

With RRIRQRPPRLPRPRPRPGHWPRP, the “shrunken log2 fold change” value came out at 0.0453.

As for RRIRNRPPRLPRPRPRPRQYPRP, the “shrunken log2 fold change” value was found to be 0.0612.

On to RRIRNRPPRLPRPRPRPKDKPRP, for which the “shrunken log2 fold change” value was -0.112.

RRIRGRPPRLPRPRPRPEPDPRP: the “shrunken log2 fold change” value is 1.27.

RRIRCRPPRLPRPRPRPRLVPRP: the “shrunken log2 fold change” value stood at 0.0587.

As to RRIRYRPPRLPRPRPRPKHSPRP, the “shrunken log2 fold change” value is -0.875.

As for RRIRWRPPRLPRPRPRPGRFPRP, the “shrunken log2 fold change” value turned out to be 0.152.

Turning to RRIRQRPPRLPRPRPRPPIMPRP, the “shrunken log2 fold change” value is -0.344.

Consider RRIRYRPPRLPRPRPRPTCEPRP, for which the “shrunken log2 fold change” value came out at 0.00952.

RRIRIRPPRLPRPRPRPRVFPRP: the “shrunken log2 fold change” value was 0.0961.

In the case of RRIRKRPPRLPRPRPRPVWGPRP, the “shrunken log2 fold change” value worked out at 3.44.

With RRIRIRPPRLPRPRPRPMWCPRP, the “shrunken log2 fold change” value is -0.168.

Take RRIRRRPPRLPRPRPRPYMTPRP: the “shrunken log2 fold change” value was -0.0329.

RRIRTRPPRLPRPRPRPGTAPRP: the “shrunken log2 fold change” value amounted to 0.166.

For the sequence RRIRYRPPRLPRPRPRPVEVPRP, the “shrunken log2 fold change” value is -0.282.

For the sequence RRIRDRPPRLPRPRPRPFFDPRP, the “shrunken log2 fold change” value was 0.266.

Take RRIRPRPPRLPRPRPRPCNLPRP: the “shrunken log2 fold change” value was -0.593.

On to RRIRRRPPRLPRPRPRPKGVPRP, for which the “shrunken log2 fold change” value turned out to be 0.401.

Regarding RRIRLRPPRLPRPRPRPGFNPRP, the “shrunken log2 fold change” value is -0.0341.

For RRIRMRPPRLPRPRPRPIVKPRP, the “shrunken log2 fold change” value was determined as 0.0312.

As to RRIRVRPPRLPRPRPRPTYDPRP, the “shrunken log2 fold change” value was -0.372.

Consider RRIRWRPPRLPRPRPRPHFMPRP, for which the “shrunken log2 fold change” value was -0.398.

In the case of RRIRCRPPRLPRPRPRPVVLPRP, the “shrunken log2 fold change” value is -0.0778.

Take RRIRLRPPRLPRPRPRPNPAPRP: the “shrunken log2 fold change” value was -0.0363.

Regarding RRIRRRPPRLPRPRPRPDTSPRP, the “shrunken log2 fold change” value came to 0.0612.

For RRIRCRPPRLPRPRPRPTSHPRP, the “shrunken log2 fold change” value was -0.348.

For the sequence RRIRARPPRLPRPRPRPIWTPRP, the “shrunken log2 fold change” value was -0.144.

For RRIRMRPPRLPRPRPRPSKNPRP, the “shrunken log2 fold change” value worked out at 0.277.

Regarding RRIRCRPPRLPRPRPRPRRGPRP, the “shrunken log2 fold change” value amounted to 0.392.

For RRIRLRPPRLPRPRPRPMAMPRP, the “shrunken log2 fold change” value stood at 0.0591.

Regarding RRIRLRPPRLPRPRPRPEGLPRP, the “shrunken log2 fold change” value came to 0.206.

Take RRIRIRPPRLPRPRPRPAYAPRP: the “shrunken log2 fold change” value was -0.197.

In the case of RRIRARPPRLPRPRPRPADCPRP, the “shrunken log2 fold change” value amounted to 0.203.

On to RRIRCRPPRLPRPRPRPCPWPRP, for which the “shrunken log2 fold change” value is -0.0714.

On to RRIRLRPPRLPRPRPRPHLGPRP, for which the “shrunken log2 fold change” value was -0.105.

As for RRIRHRPPRLPRPRPRPDRMPRP, the “shrunken log2 fold change” value was -0.093.

Regarding RRIRIRPPRLPRPRPRPVHTPRP, the “shrunken log2 fold change” value was -0.4.

In the case of RRIRARPPRLPRPRPRPAEKPRP, the “shrunken log2 fold change” value was -0.0197.

RRIRQRPPRLPRPRPRPVPSPRP: the “shrunken log2 fold change” value is -0.0282.

As for RRIRHRPPRLPRPRPRPSFCPRP, the “shrunken log2 fold change” value is -0.507.

On to RRIRMRPPRLPRPRPRPPRDPRP, for which the “shrunken log2 fold change” value amounted to 1.6.

Take RRIRFRPPRLPRPRPRPEAFPRP: the “shrunken log2 fold change” value was 1.82.

Consider RRIRHRPPRLPRPRPRPIYTPRP, for which the “shrunken log2 fold change” value was -1.35.

In the case of RRIRVRPPRLPRPRPRPQNGPRP, the “shrunken log2 fold change” value was -0.356.

For the sequence RRIRGRPPRLPRPRPRPQRDPRP, the “shrunken log2 fold change” value came out at 0.419.

Turning to RRIRDRPPRLPRPRPRPCPPPRP, the “shrunken log2 fold change” value was -0.249.

For the sequence RRIRPRPPRLPRPRPRPHLVPRP, the “shrunken log2 fold change” value is -0.034.

Regarding RRIRTRPPRLPRPRPRPWHTPRP, the “shrunken log2 fold change” value is -0.0217.

As to RRIRNRPPRLPRPRPRPAKTPRP, the “shrunken log2 fold change” value was 0.0732.

In the case of RRIRARPPRLPRPRPRPYDTPRP, the “shrunken log2 fold change” value is -0.0699.

Consider RRIRCRPPRLPRPRPRPFNDPRP, for which the “shrunken log2 fold change” value came to 0.0223.

Take RRIRVRPPRLPRPRPRPKNRPRP: the “shrunken log2 fold change” value stood at 0.137.

As for RRIRYRPPRLPRPRPRPGKNPRP, the “shrunken log2 fold change” value is -0.13.

For RRIRARPPRLPRPRPRPLTHPRP, the “shrunken log2 fold change” value was 0.227.

Turning to RRIRWRPPRLPRPRPRPCTDPRP, the “shrunken log2 fold change” value was found to be 0.0992.

With RRIRSRPPRLPRPRPRPMRYPRP, the “shrunken log2 fold change” value was 0.215.

For RRIRRRPPRLPRPRPRPFVSPRP, the “shrunken log2 fold change” value is -0.0868.

In the case of RRIRRRPPRLPRPRPRPLRSPRP, the “shrunken log2 fold change” value stood at 0.531.

In the case of RRIRERPPRLPRPRPRPVWQPRP, the “shrunken log2 fold change” value was found to be 0.123.

Turning to RRIRLRPPRLPRPRPRPTRQPRP, the “shrunken log2 fold change” value was -0.0888.

RRIRKRPPRLPRPRPRPFLYPRP: the “shrunken log2 fold change” value was -0.436.

Turning to RRIRGRPPRLPRPRPRPLEIPRP, the “shrunken log2 fold change” value worked out at 0.428.

Regarding RRIRVRPPRLPRPRPRPMYDPRP, the “shrunken log2 fold change” value is -0.0887.

With RRIRTRPPRLPRPRPRPQDSPRP, the “shrunken log2 fold change” value was -0.153.

Turning to RRIRDRPPRLPRPRPRPCTLPRP, the “shrunken log2 fold change” value was -0.302.

On to RRIRTRPPRLPRPRPRPVWKPRP, for which the “shrunken log2 fold change” value is -0.026.

In the case of RRIRPRPPRLPRPRPRPWDAPRP, the “shrunken log2 fold change” value turned out to be 0.0508.

Take RRIRRRPPRLPRPRPRPTCDPRP: the “shrunken log2 fold change” value is 0.502.

For the sequence RRIRCRPPRLPRPRPRPSNCPRP, the “shrunken log2 fold change” value was -0.0679.

In the case of RRIRRRPPRLPRPRPRPQWKPRP, the “shrunken log2 fold change” value came out at 0.016.

Take RRIRMRPPRLPRPRPRPAFMPRP: the “shrunken log2 fold change” value came out at 0.211.

Regarding RRIRSRPPRLPRPRPRPNDMPRP, the “shrunken log2 fold change” value was -0.193.

As to RRIRNRPPRLPRPRPRPLEMPRP, the “shrunken log2 fold change” value is -0.0434.

In the case of RRIRQRPPRLPRPRPRPFSMPRP, the “shrunken log2 fold change” value was -0.0842.

Turning to RRIRYRPPRLPRPRPRPDCVPRP, the “shrunken log2 fold change” value was -0.3.

As to RRIRWRPPRLPRPRPRPTTDPRP, the “shrunken log2 fold change” value stood at 0.449.

Consider RRIRSRPPRLPRPRPRPMSLPRP, for which the “shrunken log2 fold change” value was 0.226.

As to RRIRRRPPRLPRPRPRPDKCPRP, the “shrunken log2 fold change” value is -0.0562.

For RRIRSRPPRLPRPRPRPTWDPRP, the “shrunken log2 fold change” value worked out at 0.53.

As for RRIRNRPPRLPRPRPRPCTWPRP, the “shrunken log2 fold change” value worked out at 0.0117.

For the sequence RRIRRRPPRLPRPRPRPSMNPRP, the “shrunken log2 fold change” value was -0.467.
